According to PMC9482650, “Quantitative fragmentomics allow affinity mapping of interactomes” (Nature Communications, 2022):
One block for each binder: values may come before it.

What was measured:
Test in all cases: holdup assay
Design in all cases: key: below the threshold = too weak to quantify, mostly under pKd 3.1 to 4
[1] = target: T1, APBA1_2, Q02410
T1 sequence (Q02410 742-832, limits assumed, looked up): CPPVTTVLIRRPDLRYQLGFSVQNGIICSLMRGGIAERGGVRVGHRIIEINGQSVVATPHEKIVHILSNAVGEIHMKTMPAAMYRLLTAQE

[2] = target: T2, DFNB31_3, Q9P202
T2 sequence (Q9P202 811-907, limits assumed, looked up): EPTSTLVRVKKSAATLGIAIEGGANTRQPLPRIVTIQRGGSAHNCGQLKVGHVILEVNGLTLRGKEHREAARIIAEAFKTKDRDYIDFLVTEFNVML

[3] = target: DLG2_3, Q15700
[4] = target: T3, FRMPD1, Q5SYB0
T3 sequence (Q5SYB0 52-145, limits assumed, looked up): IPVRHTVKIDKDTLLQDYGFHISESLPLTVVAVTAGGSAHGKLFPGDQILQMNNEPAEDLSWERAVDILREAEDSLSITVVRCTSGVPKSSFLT

[5] = target: FRMPD2_1, Q68DX3
[6] = target: FRMPD3, Q5JV73
[7] = target: FRMPD4, Q14CM0
[8] = target: T4, GRIP1_4, Q9Y3R0
T4 sequence (Q9Y3R0 467-571, limits assumed, looked up): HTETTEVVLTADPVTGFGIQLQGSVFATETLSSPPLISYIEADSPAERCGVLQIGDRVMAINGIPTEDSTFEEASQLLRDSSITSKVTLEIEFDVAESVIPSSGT

[9] = target: T5, GRIP1_5, Q9Y3R0
T5 sequence (Q9Y3R0 568-668, limits assumed, looked up): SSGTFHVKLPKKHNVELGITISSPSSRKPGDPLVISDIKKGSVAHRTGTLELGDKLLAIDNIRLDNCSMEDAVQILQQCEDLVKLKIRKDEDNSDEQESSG

[10] = target: Inadl_1, Q8NI35
[11] = target: Inadl_10, Q8NI35
[12] = target: Inadl_4, Q8NI35
[13] = target: Inadl_6, Q8NI35
[14] = target: LNX1_3, Q8TBB1
[15] = target: T6, LNX2_2, Q8N448
T6 sequence (Q8N448 334-432, limits assumed, looked up): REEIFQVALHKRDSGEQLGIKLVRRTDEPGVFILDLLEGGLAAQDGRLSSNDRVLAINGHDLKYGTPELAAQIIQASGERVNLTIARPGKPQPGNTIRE

[16] = target: MAGI2_3, Q86UL8
[17] = target: MAGI3_2, Q5TCQ9
[18] = target: T7, MPDZ_5, O75970
T7 sequence (O75970 695-796, limits assumed, looked up): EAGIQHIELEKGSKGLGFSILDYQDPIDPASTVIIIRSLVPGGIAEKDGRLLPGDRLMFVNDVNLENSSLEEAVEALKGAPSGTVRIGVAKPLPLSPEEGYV

[19] = target: NHERF4_2, Q86UT5
[20] = target: NOS1, P29475
[21] = target: T8, PARD3B_1, Q8TEW8
T8 sequence (Q8TEW8 196-299, limits assumed, looked up): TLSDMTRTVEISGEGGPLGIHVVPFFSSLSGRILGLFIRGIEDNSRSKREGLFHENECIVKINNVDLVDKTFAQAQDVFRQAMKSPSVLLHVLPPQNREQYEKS

[22] = target: PDLIM1, O00151
[23] = target: T9, PDZD7_3, Q9H5P4
T9 sequence (Q9H5P4 857-944, limits assumed, looked up): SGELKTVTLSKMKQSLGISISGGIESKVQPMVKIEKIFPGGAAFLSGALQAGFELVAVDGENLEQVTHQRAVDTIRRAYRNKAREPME

[24] = target: PDZRN4_1, Q6ZMN7
[25] = target: PTPN3, P26045
[26] = target: T10, SHANK1, Q9Y566
T10 sequence (Q9Y566 658-767, limits assumed, looked up): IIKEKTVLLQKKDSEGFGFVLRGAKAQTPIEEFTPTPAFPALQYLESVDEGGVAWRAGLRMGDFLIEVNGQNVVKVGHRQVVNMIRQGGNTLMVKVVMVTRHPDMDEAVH

[27] = target: T11, SIPA1L2, Q9P2F8
T11 sequence (Q9P2F8 945-1036, limits assumed, looked up): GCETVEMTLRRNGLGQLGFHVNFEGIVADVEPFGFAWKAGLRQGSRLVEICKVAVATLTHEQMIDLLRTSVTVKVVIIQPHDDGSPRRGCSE

[28] = plain residues with an end cap or a label only (N-terminal biotin on a linker: ttds)
[29] = plain residues with an end cap or a label only (N-terminal biotin on a linker: ahx)

Sequence of LNX1_3, Q8TBB1 (Q8TBB1 500-596): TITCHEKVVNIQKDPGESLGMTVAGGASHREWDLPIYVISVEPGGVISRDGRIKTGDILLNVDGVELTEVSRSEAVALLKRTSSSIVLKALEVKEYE
Sequence of Inadl_4, Q8NI35 (Q8NI35 547-651): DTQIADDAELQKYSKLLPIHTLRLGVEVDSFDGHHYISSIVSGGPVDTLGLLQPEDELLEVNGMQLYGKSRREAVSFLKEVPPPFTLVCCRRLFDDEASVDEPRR
Sequence of PTPN3, P26045 (P26045 505-587): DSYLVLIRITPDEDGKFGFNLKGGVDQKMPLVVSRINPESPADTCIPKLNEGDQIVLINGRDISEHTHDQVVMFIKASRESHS
Sequence of NOS1, P29475 (P29475 9-101): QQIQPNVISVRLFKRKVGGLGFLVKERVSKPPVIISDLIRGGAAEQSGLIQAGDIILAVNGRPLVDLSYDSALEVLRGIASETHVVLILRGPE
Sequence of Inadl_10, Q8NI35 (Q8NI35 1673-1763): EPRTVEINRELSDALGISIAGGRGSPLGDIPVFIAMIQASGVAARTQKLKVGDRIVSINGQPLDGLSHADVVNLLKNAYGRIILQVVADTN
Sequence of PDLIM1, O00151 (O00151 1-87): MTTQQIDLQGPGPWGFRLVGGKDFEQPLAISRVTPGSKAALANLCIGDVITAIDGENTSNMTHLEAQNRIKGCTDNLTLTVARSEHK
Sequence of MAGI2_3, Q86UL8 (Q86UL8 600-682): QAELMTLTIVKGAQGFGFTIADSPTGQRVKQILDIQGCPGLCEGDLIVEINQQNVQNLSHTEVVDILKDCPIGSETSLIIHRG
Sequence of Inadl_1, Q8NI35 (Q8NI35 113-229): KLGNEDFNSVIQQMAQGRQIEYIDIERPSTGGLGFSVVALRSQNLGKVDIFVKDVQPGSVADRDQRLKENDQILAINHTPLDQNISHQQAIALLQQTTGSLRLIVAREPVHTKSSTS
Sequence of PDZRN4_1, Q6ZMN7 (Q6ZMN7 213-318): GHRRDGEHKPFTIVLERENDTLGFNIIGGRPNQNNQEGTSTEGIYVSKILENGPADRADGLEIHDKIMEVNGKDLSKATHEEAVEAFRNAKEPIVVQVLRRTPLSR
Sequence of Inadl_6, Q8NI35 (Q8NI35 1058-1167): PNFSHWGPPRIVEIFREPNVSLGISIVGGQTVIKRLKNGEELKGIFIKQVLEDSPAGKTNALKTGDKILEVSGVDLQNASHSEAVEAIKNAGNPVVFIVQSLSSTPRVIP
Sequence of FRMPD2_1, Q68DX3 (Q68DX3 770-861): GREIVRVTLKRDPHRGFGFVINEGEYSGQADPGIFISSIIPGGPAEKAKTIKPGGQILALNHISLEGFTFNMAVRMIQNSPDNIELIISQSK
Sequence of FRMPD3, Q5JV73 (Q5JV73 12-100): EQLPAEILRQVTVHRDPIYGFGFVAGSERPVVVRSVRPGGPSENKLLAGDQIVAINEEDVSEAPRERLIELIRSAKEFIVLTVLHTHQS
Sequence of NHERF4_2, Q86UT5 (Q86UT5 220-308): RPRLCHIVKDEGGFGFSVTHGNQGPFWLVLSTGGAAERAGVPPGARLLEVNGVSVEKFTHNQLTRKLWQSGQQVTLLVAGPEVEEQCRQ
Sequence of FRMPD4, Q14CM0 (Q14CM0 67-160): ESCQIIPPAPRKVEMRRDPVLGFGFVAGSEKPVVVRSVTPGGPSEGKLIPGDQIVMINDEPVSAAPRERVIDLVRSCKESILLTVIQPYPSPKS
Sequence of MAGI3_2, Q5TCQ9 (Q5TCQ9 398-503): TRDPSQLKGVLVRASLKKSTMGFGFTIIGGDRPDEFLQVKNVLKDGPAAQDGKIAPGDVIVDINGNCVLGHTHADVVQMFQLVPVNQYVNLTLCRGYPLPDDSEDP

pKd [1, 28]: 4.2
pKd [2, 28]: below the threshold
pKd [3, 28]: 4.38
pKd [4, 28]: below the threshold
pKd [5, 28]: below the threshold
pKd [6, 28]: below the threshold
pKd [7, 28]: 3.93
pKd [8, 28]: below the threshold
pKd [9, 28]: below the threshold
pKd [10, 28]: below the threshold
pKd [11, 28]: below the threshold
pKd [12, 28]: below the threshold
pKd [13, 28]: 4.02
pKd [14, 28]: below the threshold
pKd [15, 28]: below the threshold
pKd [16, 28]: 4.45
pKd [17, 28]: 4.85
pKd [18, 28]: below the threshold
pKd [19, 28]: below the threshold
pKd [20, 28]: 4.34
pKd [21, 28]: below the threshold
pKd [22, 28]: below the threshold
pKd [23, 28]: 4.32
pKd [24, 28]: 4.81
pKd [25, 28]: 5.12
pKd [26, 28]: 4.3
pKd [27, 28]: below the threshold
Binder: IQREDQETAV [DGKZ, Q13574]

pKd [1, 29]: below the threshold
pKd [2, 29]: below the threshold
pKd [3, 29]: below the threshold
pKd [4, 29]: below the threshold
pKd [5, 29]: below the threshold
pKd [6, 29]: below the threshold
pKd [7, 29]: below the threshold
pKd [8, 29]: below the threshold
pKd [9, 29]: below the threshold
pKd [10, 29]: below the threshold
pKd [11, 29]: below the threshold
pKd [12, 29]: below the threshold
pKd [13, 29]: below the threshold
pKd [14, 29]: below the threshold
pKd [15, 29]: below the threshold
pKd [16, 29]: below the threshold
pKd [17, 29]: below the threshold
pKd [18, 29]: below the threshold
pKd [19, 29]: below the threshold
pKd [20, 29]: below the threshold
pKd [21, 29]: below the threshold
pKd [22, 29]: below the threshold
pKd [23, 29]: below the threshold
pKd [24, 29]: below the threshold
pKd [25, 29]: 3.64
pKd [26, 29]: below the threshold
pKd [27, 29]: below the threshold
Binder: SSSNSEDTEM [NHERF3, Q5T2W1]

pKd [1, 29]: 4.87
pKd [2, 29]: below the threshold
pKd [3, 29]: 3.47
pKd [4, 29]: below the threshold
pKd [5, 29]: below the threshold
pKd [6, 29]: below the threshold
pKd [7, 29]: below the threshold
pKd [8, 29]: below the threshold
pKd [9, 29]: below the threshold
pKd [10, 29]: below the threshold
pKd [11, 29]: 3.91
pKd [12, 29]: below the threshold
pKd [13, 29]: 3.94
pKd [14, 29]: below the threshold
pKd [15, 29]: 4.62
pKd [16, 29]: below the threshold
pKd [17, 29]: 4.72
pKd [18, 29]: 3.58
pKd [19, 29]: below the threshold
pKd [20, 29]: 3.66
pKd [21, 29]: below the threshold
pKd [22, 29]: below the threshold
pKd [23, 29]: 4.31
pKd [24, 29]: below the threshold
pKd [25, 29]: 3.92
pKd [26, 29]: below the threshold
pKd [27, 29]: below the threshold
Binder: KTSAHHATFV [RGS12, O14924]

Continued, binder first:

Binder: SPLHSLETSL [ATP2B1, P20020]
pKd [1, 28]: 3.93
pKd [2, 28]: below the threshold
pKd [3, 28]: 4.07
pKd [4, 28]: below the threshold
pKd [5, 28]: below the threshold
pKd [6, 28]: 3.59
pKd [7, 28]: 4.45
pKd [8, 28]: below the threshold
pKd [9, 28]: below the threshold
pKd [10, 28]: 3.69
pKd [11, 28]: below the threshold
pKd [12, 28]: below the threshold
pKd [13, 28]: 4.31
pKd [14, 28]: below the threshold
pKd [15, 28]: below the threshold
pKd [16, 28]: 3.5
pKd [17, 28]: 3.69
pKd [18, 28]: below the threshold
pKd [19, 28]: below the threshold
pKd [20, 28]: 3.77
pKd [21, 28]: 4.02
pKd [22, 28]: 3.71
pKd [23, 28]: 4.63
pKd [24, 28]: 5.24
pKd [25, 28]: 4.95
pKd [26, 28]: 4.71
pKd [27, 28]: below the threshold

Binder: RNCSTNDSLL [ADRB2, P07550]
pKd [1, 29]: below the threshold
pKd [2, 29]: below the threshold
pKd [3, 29]: below the threshold
pKd [4, 29]: below the threshold
pKd [5, 29]: below the threshold
pKd [6, 29]: below the threshold
pKd [7, 29]: 3.64
pKd [8, 29]: below the threshold
pKd [9, 29]: below the threshold
pKd [10, 29]: below the threshold
pKd [11, 29]: 3.56
pKd [12, 29]: below the threshold
pKd [13, 29]: below the threshold
pKd [14, 29]: below the threshold
pKd [15, 29]: below the threshold
pKd [16, 29]: below the threshold
pKd [17, 29]: below the threshold
pKd [18, 29]: below the threshold
pKd [19, 29]: below the threshold
pKd [20, 29]: below the threshold
pKd [21, 29]: 3.75
pKd [22, 29]: 3.77
pKd [23, 29]: 3.57
pKd [24, 29]: below the threshold
pKd [25, 29]: 3.53
pKd [26, 29]: below the threshold
pKd [27, 29]: below the threshold
